The target in data set [1] is CI∆58, truncated CI repressor from bacteriophage TP901-1 (residues 1–122) (bacteriophage TP901-1) (UniProt O48503). In words: native MS; apo CI∆58 6 μM in 250 mM ammonium acetate, pH 6.8; nano-ESI, quadrupole time-of-flight.
The target is the same in data set [2]. In words: SEC; HiLoad 26/60 Superdex 75; native molecular weight estimated by comparison with globular protein standards.
Data set [3] deals with T1, CI∆58 (CI repressor, C-terminally truncated) (bacteriophage TP901-1 (host Lactococcus lactis)) (UniProt O48503).
T1 sequence: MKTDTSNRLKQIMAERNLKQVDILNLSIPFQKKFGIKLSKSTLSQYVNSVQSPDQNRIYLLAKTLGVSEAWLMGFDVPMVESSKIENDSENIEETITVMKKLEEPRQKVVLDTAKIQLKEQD
The experiment in a line: EMSA. Particulars: 0.4 nM DNA; EMSA: ~0.4-0.5 nM Cy5 DNA, binding solution of ref 3 (not given), on ice 30 min, 2% agarose, 1x TBE, 0 °C; NMR: 300 mM NaCl, 298 K; native MS: 250 mM …. A general note: A gel shift assay detects complexes by their altered migration in electrophoresis.

For data set [4], the system named is CI-NTD (bacteriophage TP901-1 (host Lactococcus lactis)). In words: EMSA. Particulars: 0.4 nM DNA; EMSA: ~0.4-0.5 nM Cy5 DNA, binding solution of ref 3 (not given), on ice 30 min, 2% agarose, 1x TBE, 0 °C; NMR: 300 mM NaCl, 298 K; native MS: 250 mM ….
Data set [5] concerns the molecule itself. In words: SEC; HiLoad 26/60 Superdex 75; native molecular weight estimated by comparison with globular protein standards.

What is called stoichiometry N is the number of molecules, sites or subunits per partner or assembly. With “CI∆58, truncated CI repressor from bacteriophage TP901-1 (residues 1–122) (from UniProt O48503 1-122) (domain or fragment)”, the stoichiometry N in data set [1] and in data set [2] was 2 each time.
Usually Kd stands for the constant that tells how readily two partners part at equilibrium. Low values mean tighter binding, high ones weaker binding. Regarding P5 fragment containing OL, the Kd in data set [3] turned out to be 3 nM; in data set [4], 1100 nM.

B1: CI-CTD1, synthetic peptide of the dimerization region of CI repressor from bacteriophage TP901-1 (residues 90–125) (peptide)
peptide: ENIEETITVMKKLEEPRQKVVLDTAKIQLKEQDEQ
notes: CI repressor of Lactococcus lactis bacteriophage TP901-1, dimerization region CTD1; printed as residues 90-125 and as a 35 residues peptide; Delivered as a lyophilized chloride salt, purity 98.45%; solubilised at pH 12 and brought back to pH 7.5; source: synthetic peptide, bought: CASLO
Regarding B1, the “stoichiometry N” value in data set [5] is 4.

The record behind these values is PMC4941734, “Structural and dynamics studies of a truncated variant of CI repressor from bacteriophage TP901-1” (Scientific Reports, 2016).
